Patent US20220242950A1 (CANTARGIA, published 2022)
Residue numbers refer to the chain shown, from its start.

T1: recombinant hIL1RAP Domain1+2+3 (aa21-367) (human, UniProt Q9NPH3 21-367)
T1 construct: Numbering on Uniprot Q9NPH3
T1 sequence (looked up): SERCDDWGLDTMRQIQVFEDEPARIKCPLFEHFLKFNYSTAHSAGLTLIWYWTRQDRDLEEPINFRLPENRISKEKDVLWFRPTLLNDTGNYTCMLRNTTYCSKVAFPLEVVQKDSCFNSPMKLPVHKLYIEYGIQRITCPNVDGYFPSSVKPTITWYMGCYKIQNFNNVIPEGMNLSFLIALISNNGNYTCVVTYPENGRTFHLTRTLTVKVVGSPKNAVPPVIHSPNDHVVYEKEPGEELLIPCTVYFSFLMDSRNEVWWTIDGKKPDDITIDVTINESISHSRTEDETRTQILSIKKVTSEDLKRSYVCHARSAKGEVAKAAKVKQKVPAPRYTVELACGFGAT

T2: recombinant mf IL1RAP aa21-367 (cynomolgus monkey (Macaca fascicularis), UniProt A0A2K5X5J5 21-367)
T2 construct: also called cynomolgus monkey IL1RAP; cyno IL1RAP
T2 sequence: T1 sequence (looked up) with L183F, T273P, K326T

T3: human IL1RAP on the cell surface (human, UniProt Q9NPH3 21-570)
T3 sequence (looked up): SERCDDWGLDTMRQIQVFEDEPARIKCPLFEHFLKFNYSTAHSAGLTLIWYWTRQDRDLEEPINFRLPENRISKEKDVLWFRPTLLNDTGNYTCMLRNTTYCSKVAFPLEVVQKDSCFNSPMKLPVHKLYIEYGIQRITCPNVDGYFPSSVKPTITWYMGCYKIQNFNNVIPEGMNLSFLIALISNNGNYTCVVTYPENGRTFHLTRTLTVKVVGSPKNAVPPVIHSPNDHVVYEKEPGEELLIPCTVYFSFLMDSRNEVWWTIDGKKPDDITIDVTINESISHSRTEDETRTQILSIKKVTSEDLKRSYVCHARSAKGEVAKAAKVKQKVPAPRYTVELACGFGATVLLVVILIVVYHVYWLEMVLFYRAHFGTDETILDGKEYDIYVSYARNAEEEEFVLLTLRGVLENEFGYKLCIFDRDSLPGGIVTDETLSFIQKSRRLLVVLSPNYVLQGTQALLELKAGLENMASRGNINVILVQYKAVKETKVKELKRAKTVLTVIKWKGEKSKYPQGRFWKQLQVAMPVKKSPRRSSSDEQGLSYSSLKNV

B1: h48D2 VH5:VL1 (antibody, human IgG1, kappa, L234A L235A, V domains shown)
VH: QEQLEESGGGLVKPGGTLSLTCTVSGPSLSHFDITWIRQAPGSGLEWIGTISPGVSTYYASWAKSRVTISVDTSLNTVSLKLSSVTAADTATYFCARGGVGSSWKAFDLWGPGTLVTISS
VL: DIVMTQSPSSLSASVGDRVTITCQASESISTALAWYQQKPGKAPKLLIYKASTLPSGVPSRFSGSGSGTDFTLTISSLQPEDFATYYCQQGFSSGNVHNAFGGGTKVVIKR
notes: Humanized; also called VL1:VH5
B2: h48D2 VH1:VL1 (antibody, human IgG1, kappa, L234A L235A, V domains shown)
VH: EVQLEESGGGLVKPGGSLRLSCAASGPSLSHFDITWVRQAPGKGLEWVSTISPGVSTYYASWAKSRFTISRDNSKNTLYLQMNSLRAEDTAVYYCARGGVGSSWKAFDLWGRGTLVTVSS
VL: B1 VL
notes: Humanized; also called VL1:VH1
B3: h48D2 VH2:VL1 (antibody, human IgG1, kappa, L234A L235A, V domains shown)
VH: EVQLVESGGALVQPGGSLRLSCIVSGPSLSHFDITWFRQAPGKGLEWVATISPGVSTYYASWAKSRFTISTDTSKNTLFLQMDSLRAEDTAVYYCARGGVGSSWKAFDLWGPGTLVTVSS
VL: B1 VL
notes: Humanized; also called VL1:VH2
B4: h48D2 VH3:VL1 (antibody, human IgG1, kappa, L234A L235A, V domains shown)
VH: B2 VH with E5L, K13L, N83S, R112L, L115T
VL: B1 VL
notes: Humanized; also called VL1:VH3
B5: h48D2 VH1:VL3 (antibody, human IgG1, kappa, L234A L235A, V domains shown)
VH: B2 VH
VL: DILLTQTPSVVSASVGDRVTITCQASESISTALAWYQQKPGQAPRLLIYKASTLPSGVPSRFRGSGSGTDFTLTITSLQPEDFATYYCQQGFSSGNVHNAFGGGTRLEIKR
notes: Humanized; also called VL3:VH1
B6: h48D2 VH1:VL4 (antibody, human IgG1, kappa, L234A L235A, V domains shown)
VH: B2 VH
VL: B1 VL with D1E, I2L, L11V, S76N, V108E
notes: Humanized; also called VL4:VH1
B7: h48D2 VH1:VL2 (antibody, human IgG1, kappa, L234A L235A, V domains shown)
VH: B2 VH
VL: B1 VL with D1Q, M4L, S9A, S10T, D70E, E81D, F83S, G103Q, V107L, V108E
notes: Humanized; also called VL2:VH1
B8: h48D2 VH5:VL3 (antibody, human IgG1, kappa, L234A L235A, V domains shown)
VH: B1 VH
VL: B5 VL
notes: Humanized; also called VL3:VH5
B9: h48D2 VH3:VL4 (antibody, human IgG1, kappa, L234A L235A, V domains shown)
VH: B2 VH with E5L, K13L, N83S, R112L, L115T
VL: B1 VL with D1E, I2L, L11V, S76N, V108E
notes: Humanized; also called VL4:VH3
B10: h48D2 VH5:VL2 (antibody, human IgG1, kappa, L234A L235A, V domains shown)
VH: B1 VH
VL: B1 VL with D1Q, M4L, S9A, S10T, D70E, E81D, F83S, G103Q, V107L, V108E
notes: Humanized; also called VL2:VH5
B11: h48D2 VH5:VL5 (antibody, human IgG1, kappa, L234A L235A)
heavy: not shown
light: APVLTQSPATLEASVGDRVTITCQASESISTALAWYQQKPGQPPKLLIYKASTLPSGVPSRFSGSGSGTEFTLTISDLESDDAATYYCQQGFSSGNVHNAFGGGTEVVVKRTVAAPSVFIFPPSDEQLKSGTASVVCLLNNFYPREAKVQWKVDNALQSGNSQESVTEQDSKDSTYSLSSTLTLSKADYEKHKVYACEVTHQGLSSPVTKSFNRGEC
notes: Humanized; also called VL5:VH5
B12: h48D2 VH1:VL5 (antibody, human IgG1, kappa, L234A L235A, V domains shown)
VH: B2 VH
VL: APVLTQSPATLEASVGDRVTITCQASESISTALAWYQQKPGQPPKLLIYKASTLPSGVPSRFSGSGSGTEFTLTISDLESDDAATYYCQQGFSSGNVHNAFGGGTEVVVKR
notes: Humanized; also called VL5:VH1
B13: h48D2 VH2:VL5 (antibody, human IgG1, kappa, L234A L235A, V domains shown)
VH: B3 VH
VL: B12 VL
notes: Humanized; also called VL5:VH2

Molecular target: T1, recombinant hIL1RAP Domain1+2+3 …
Assay: bio-layer interferometry, human IL1RAP
Experimental: Affinity measurements were done on BLItz™ Label-Free Protein Analysis System from ForteBio, using the Basic Kinetics module in the BLItz Pro 1.3.1.3 software from Molecular Devices. Protein A biosensors were hydrated in blocking buffer (PBS, 0.5% BSA, 0.05% Tween 20, pH 7.4) for minimum 10 min at room temperature before coating. Protein A biosensors were coated with antibodies by dipping the biosensors in 200 μl of antibody solution (10 μg/ml in blocking buffer) for 30 min at room temperature. The sensors were then incubated in 200 μl blocking buffer for at least 10 min before use. […] The baseline was made in blocking buffer with a duration time of 30 sec. Association was made for 120 sec in hIL1RAP followed by 120 sec dissociation in blocking buffer.
The antibodies were characterized for A) binding (ELISA analysis, human and cynomolgus monkey IL1RAP), B) inhibition of cytokine signaling (HEK-Blue™ assay), C) affinity (Bio-layer interferometry), D) size heterogeneity (SE-HPLC) and E) yield (concentration, A280). […] SE-HPLC was performed using standard procedures and PBS as running buffer. Affinity and cytokine inhibition were measured as previously described in Example 10. All 25 humanized clones were analyzed for blocking activity on IL-1α, IL-1β and IL-33 signaling while only the clones that had retained the inhibitory activity similar to chimeric 48D2 were analyzed for IL-36 inhibition.
KD values for affinity towards human IL1RAP are shown in Table 11 for the humanized 48D2 variants. Affinity was measured using bio-layer interferometry. […] See also Table 4 for a direct comparison of chimeric 48D2, humanized 48D2 variant VH5:VL4, and a humanized and de-immunized 48D2 variant VH5.GL:VL4.

Row | Binder | Kd [nM]
1 | B1 | 2.75
2 | B2 | 30.3
3 | B3 | 13.2
4 | B4 | 28
5 | B5 | 35
6 | B6 | 42.9
7 | B7 | 33.7
8 | B8 | 2.33
9 | B9 | 29.6
10 | B10 | 4.27
11 | B11 | 1.68
12 | B12 | 31.6
13 | B13 | 12

Molecular target: T2, recombinant mf IL1RAP aa21-367
Assay: binding ELISA, coated recombinant mf IL1RAP aa21-367

Row | Binder | IC50 [µg/mL]
14 | B1 | 0.0261
15 | B2 | 0.0226
16 | B3 | 0.0279
17 | B4 | 0.0294
18 | B5 | 0.018
19 | B6 | 0.02
20 | B7 | 0.0198
21 | B8 | 0.0288
22 | B9 | 0.0303
23 | B10 | 0.0218
24 | B11 | 0.0313
25 | B12 | 0.0242
26 | B13 | 0.0279

Molecular target: T1, recombinant hIL1RAP Domain1+2+3 …
Assay: binding ELISA, coated recombinant hIL1RAP aa21-367

Row | Binder | IC50 [µg/mL]
27 | B1 | 0.0248
28 | B2 | 0.0181
29 | B3 | 0.0238
30 | B4 | 0.0257
31 | B5 | 0.0201
32 | B6 | 0.019
33 | B7 | 0.0182
34 | B8 | 0.0249
35 | B9 | 0.0263
36 | B10 | 0.0231
37 | B11 | 0.0276
38 | B12 | 0.0234
39 | B13 | 0.0249

Molecular target: T3, human IL1RAP on the cell surface
Assay: cell-based or functional assay

Row | Binder | IC50 of IL-1α signaling (HEK-Blue assay) [nM] | IC50 of IL-33 signaling (HEK-Blue assay) [nM] | IC50 of IL-36α signaling (HEK-Blue assay) [nM] | IC50 of IL-36γ signaling (HEK-Blue assay) [nM] | IC50 of IL-1β signaling (HEK-Blue assay) [nM] | IC50 of IL-36β signaling (HEK-Blue assay) [nM]
40 | B1 | 2.14 | 3.14 | 0.286 | 3.1 |  | 
41 | B2 | 227 | 254 |  |  | 51.6 | 
42 | B3 | ~43800 |  |  |  | 2.75 | 
43 | B4 |  | ~87500 |  |  | 9.54 | 
44 | B5 | 231 | 195 |  |  | 17.2 | 
45 | B6 | 347 |  |  |  | 14.6 | 
46 | B7 | 242 |  |  |  | 37.6 | 
47 | B8 | 4.45 | 2.72 | 0.0779 | 0.167 |  | 17.4
48 | B9 |  |  |  |  | 22.3 | 
49 | B10 | 3.77 | 0.647 |  | 0.253 |  | 
50 | B11 | 6.3 | 1.23 |  | 0.192 |  | 11.1
51 | B12 | 528 | 74.7 |  |  | 20.2 | 
52 | B13 | 401 | 183 |  |  | 5.77 | 
